# According to patent US10370443B2, “Method of treating autoimmune disease by administering antibodies to interleukin-6” (Fountain Biopharma Inc., priority 2012, dated 2019):
# Where a chain is given by its changes, count along the chain named. “Also recorded” adds a separate entry of the source.
# B1: 1-4-62: parent fully-human anti-IL6 antibody clone; HC CDR3 SEQ ID NO: 6, LC CDR3 SEQ ID NO: 13 (antibody, V domains shown)
# VH: EVQLVESGPALVKPTQTLTLTCTFSGFSLSTGGMSVSWIRQPPGKALEWLARIDWDDDKFYTPSLKTRLTISRDTSKNQVVLIMTNMDPVDTATYYCARMHIDDSNGYYSDAFHIWGQGTMVTVSS
# VL: EIVLTQSPATLSVSPGERVTLSCRDSQSVSSTSLAWYQQKSGQAPRLLIYDTSNRATGIPARFSGGGSGTDFTLTISSLEPEDFAVYYCLVRNNWPPRFTFGQGTKVEIK
# B2: Ag1-4-6: affinity-matured fully-human anti-IL6 antibody; HC CDR3 SEQ ID NO: 6, LC CDR3 SEQ ID NO: 15 (antibody, V domains shown)
# VH: B1 VH
# VL: B1 VL with L90S, V91F, R92V, N93S, N94R, W95P, P96Y
# B3: HAg1T-3-10: affinity-matured fully-human anti-IL6 antibody; HC CDR3 SEQ ID NO: 16, LC CDR3 SEQ ID NO: 15 (antibody, V domains shown)
# VH: B1 VH with Y109F
# VL: B1 VL with L90S, V91F, R92V, N93S, N94R, W95P, P96Y
# Key:
# [1] = system: IL6-induced phosphorylated STAT3 in U266 cells; assay: Cell signaling transduction assay (P-STAT3 western blot); type: cell-based, human; conditions: for STAT3 phosphorylation inhibition percentage of control: rhIL6; for suppression of phosphorylated-STAT3 signaling: western blot, FIG. 1A/1B
# Procedure: U266 cells (1×10^6/ml) were washed twice with serum-free RPMI 1640 and cultured for 2 h in the absence of fetal bovine serum and growth factors. Cells were stimulated with rhIL6 (5 ng/ml) for 30 min at 37° C. and then treated with or without anti-IL6 antibodies. Cells were washed with ice-cold PBS, and then lysed in RIPA buffer (Thermo) supplemented with protease and phosphatase inhibitor (Roche). Western blot analysis was performed using anti-pSTAT3, and anti-STAT3 (Cell Signaling Technology) antibodies. After incubating with HRP-labeled goat anti-rabbit (Thermo) or HRP-labeled goat anti-mouse antibody (Thermo), the membranes were developed by enhanced chemiluminescence (GE Healthcare).
# Human multiple myeloma U266 cells were used to examine the effect of anti-IL6 antibodies on IL6-induced signaling cascade. U266 cells were cultured in the presence or absent of antibodies, together with rhIL6. After 30 minutes, whole cell lysates were collected and western blot analysis was performed to examine phosphorylated STAT3 protein (P-STAT3), which is a major transcription factor involved in the IL6 signaling pathway. […] (FIGS. 1A and 1B).
# [2] = system: human prostate cancer PC-3 cell; assay: Prostate PC3 tumor metastasis and cachexia, intrasplenic implantation model; conditions: for total body weights (cachexia): day 31 after PC-3 implantation, 20 mg/kg i.v. twice a week, P<0.01; for symptom-free survival of PC3 tumor-bearing mice: repetitive injections, Kaplan-Meier, FIG. 5B
# Procedure: The body weights of those mice were measured twice a week.
# All mice were then euthanized by CO2 asphyxiation and body weights were determined. Primary tumors in the spleen and liver were excised, photographed, and weighed. Organ index was expressed as milligram organ per gram mouse. Mean+SD were calculated using Student's t-test. The survival assay was used Kaplan-Meier analysis. Paraffin-embedded or frozen section of tumor masses were prepared and stained by anti-CD31 and Ki-67 plus Hematoxylin staining for analysis.
# To verify the efficacy of FB704 on cancer induced cachexia and metastasis, mice were implanted with human prostate cancer PC-3 cell (1.0×10^6 per mouse) by intrasplenic injection. On day 1, the mice were randomized into 4 groups (n=12-15). High (20 mg/kg) and low (5 mg/kg) dose of FB704, positive control Actemra (20 mg/kg) and PBS were administered via i.v. (intravenous) injection twice a week.
# [3] = system: BxPC-3 tumor; assay: Xenograft human pancreatic tumor model; type: in vivo, mice; conditions: BxPC-3 tumor sections, FIGS. 6E and 6F
# Procedure: (iv) Xenograft Human Pancreatic Tumor Model Human pancreatic tumor cells BxPC-3 and MiaPaCa cells were re-suspended in PBS and injected subcutaneously (s.c.) (5×10^6 cells, total volume 0.15 mL) into the right flank of mice. […] Mice body weights and the tumor sizes were measured twice a week. Tumor sizes were measured using a caliper, and the tumor volume was calculated by […]. After the experiment, all mice were sacrificed, mice blood samples were collected and the tumor masses were removed and weighted. The differences in mean tumor volume and tumor weight were evaluated by Student's t-test. […] Results (i) FB704 Inhibits In Vivo Angiogenesis in a Matrigel Assay
# FB704 enhanced the anti-tumor activity of Oxaliplatin or Gemcitabine in a human pancreatic cancer model.
# [4] = molecular target: T1, recombinant human IL6 (Homo sapiens, UniProt P05231); assay: BIAcore analysis of IgG binding affinity; conditions: for Ka: association rate constant, captured IgG, BIAcore T200; for Kd: dissociation rate constant
# T1 construct: purchased R&D Systems
# Procedure: IgG binding affinity was measured by using human antibody capture kit (GE healthcare) in BIAcore T200 system (GE healthcare). The mouse anti-human IgG was immobilized on a CMS sensor chip via amine coupling. Approximately 700 RU of purified anti-IL6 IgG in HBS-EP+ buffer were captured onto the immobilized surface. The recombinant human IL6 (R&D Systems) at concentrations ranging from 25.6 nM to 0.4 nM in HBS-EP+ buffer was injected for 2 minutes using a flow rate of 30 μl/min. Dissociation of bound antigen in HBS^−EP^+ buffer flow was followed for 7 minutes. The surfaces IgG were regenerated after each cycle using regeneration solution (3M MgCl2). The dissociation constant (KD) was calculated as kd/ka.
# [5] = system: IL6-induced MCP-1 in PBMC cells; assay: MCP-1 production in human PBMC; type: cell-based; conditions: PBMC of five healthy donors, IL6 100 ng/ml, 24 h, FIG. 7B
# Procedure: Further, PBMCs were isolated from five healthy donors. The cells (5×10^5 cells/250 μl/well) were cultured with IL6 (100 ng/ml) for 24 h in a 96-well U-bottomed culture plates (Corning, Corning, N.Y.) containing RPMI1640 in the presence of anti-IL6 antibodies at different concentrations. The levels of MCP-1 in the supernatant were measured by MCP-1 ELISA kits (e Bioscience).
# [6] = system: IL6 plus sIL6R induced MCP-1 and sICAM-1 in HUVECs; assay: MCP-1 and sICAM-1 production in HUVEC cells (ELISA); type: cell-based, human; conditions: 24 h; for inhibition of IL6+sIL6R induced MCP-1 secretion: FIG. 2A; for inhibition of sICAM-1 production: FIG. 2B
# Procedure: To examine the effectiveness of the anti-IL6 antibodies described herein in treating rheumatoid arthritis (RA), monocyte chemotactic protein-1 (MCP-1) and sICAM-1 secretion by Human Umbilical Vein Endothelial Cells (HUVECs) were measured after antibody treatment as follows. The HUVEC cells were plated in a 48-well plate at a density of 2×10^5 cells/ml. The cells were treated with a combination of recombinant human IL6, IL6 receptor-α (R&D systems) with or without anti-IL6 antibodies at various concentrations or the control IgG antibody at 37° C. for 24 h. Cell free culture supernatants were collected and analysis for MCP-1 and sICAM-1 by ELISA (RayBiotech)
# [7] = system: human IL6 and other cytokines (IL6 family and non-IL6 family); assay: Specificity analysis ELISA on coated cytokines; type: binding; conditions: FIGS. 3A and 3B
# Procedure: Plates were coated with recombinant human IL3, IL4, IL5, IL6, IL11, IL17A, CNTF, OSM, IGF-1 (R&D Systems), IL2, FGF (Prospec), VEGF, TNF-α, EGF (Peprotech) at 2 μg/ml in 0.1M NaHCO3 buffer at 4° C. overnight. After being washed by PBS, the wells were blocked with 1% (w/v) BSA in PBS at RT for 1 h. Purified anti-IL6 antibodies in four-fold serial dilutions at a starting concentration of 2 μg/ml were placed into the wells and incubated at RT for 1 h. The plate was washed in PBS containing 0.1% (w/v) Tween 20 and then probed with HRP-labeled goat anti-human IgG (KPL) diluted 1:10,000 in 1% BSA-PBS for 40 min at RT. The plate was again washed and a TMB substrate solution was added to develop color. Stop solution (1M H2SO4) was then added and the absorption at 450 nm quantitated using VERSA max (Molecular Devices).
# An ELISA assay as described herein was performed to confirm the binding specificity of high-affinity anti-IL6 antibodies described herein. Briefly, plates were coated with different cytokines as indicated in FIG. 3A (IL6 family cytokines) and FIG. 3B (non-IL6 family cytokines) and the binding activities of the FB704 antibody clone (i.e. Ag1-4-6) to those cytokines were examined.
# [8] = system: hIL6-induced angiogenesis; assay: Matrigel angiogenesis assay; type: in vivo, mice; conditions: listed as FB704
# Procedure: Liquid matrigel (BD Biosciences) was maintained at 4° C. hIL6 recombinant protein (R&D Systems) was added to Matrigel to a final concentration of 100 ng/0.5 ml. […] Then, the mice were treated with anti-IL6 IgG antibodies or a control IgG antibody through intravenous injection. On day 6, the mice were euthanized by CO2 asphyxiation. Matrigel plugs were removed, weighed and photographed. To measure hemoglobin levels, the Matrigel plug was lysed with a lysis buffer (1% SDS, 0.5% Triton in PBS) overnight at 4° C. The hemoglobin contents of the plugs were quantitated using Drabkin's reagent (Sigma). The concentrations of hemoglobin in the plugs were determined using a standard curve of bovine hemoglobin (Sigma). Hemoglobin contents were indicated as micrograms hemoglobin per gram Matrigel. Mean+SD were calculated using the Student's unpaired t test; p<0.05 was considered as statistically significant.
# The anti-angiogenic ability of FB704 was examined in an in vivo matrigel model as described herein. Six days after the treatment, the mice were scarified mice and hemoglobin concentrations were measured. […] (FIG. 4B).
# T1 sequence (P05231 30-212): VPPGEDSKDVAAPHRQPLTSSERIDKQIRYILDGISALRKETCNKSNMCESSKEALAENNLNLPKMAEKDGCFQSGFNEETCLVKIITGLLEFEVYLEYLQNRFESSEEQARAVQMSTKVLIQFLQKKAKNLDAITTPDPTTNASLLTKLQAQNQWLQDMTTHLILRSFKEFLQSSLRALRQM
Molecule,total body weights (cachexia) [2],Ki-67 positive cell rate [3] [%],dissociation rate constants (kd) [4] [s⁻¹],Ka [4] [M⁻¹ s⁻¹],Kd [4] [s⁻¹],suppression of MCP-1 production [5],inhibition of IL6+sIL6R induced MCP-1 secretion [6],inhibition of sICAM-1 production [6],suppression of phosphorylated-STAT3 signaling [1],also measured
"Actemra: anti-IL6 receptor humanized antibody, FDA-approved for rheumatoid arthritis, used as a control [reference compound]",remained stable,–,–,–,–,–,–,–,–,STAT3 phosphorylation inhibition percentage of control ([1]; Ab concentration 0.05 μg/ml): 0%; STAT3 phosphorylation inhibition percentage of control ([1]; Ab concentration 0.5 μg/ml): 17%; symptom-free survival of PC3 tumor-bearing mice [2]: significantly prolonged symptom-free survival
"O=C1[O][Pt]2([NH][C@@H]3CCCC[C@H]3[NH]2)[O]C1=O [Oxaliplatin, reference compound]",–,14,–,–,–,–,–,–,–,–
B1,–,–,0.00166,438000,0.00166,–,–,–,–,–
B2,remained stable,16,–,1.61e+06,0.00121,inhibited MCP-1 production in a dose dependent manner,in a dose dependent manner; also recorded: inhibited,in a dose dependent manner; also recorded: at a level greater than Actemra,at a level greater than Actemra; also recorded: suppressed the STAT3 signaling at a much greater level as compared to control antibody Actemra,"tumor cell infiltration in liver ([2]; gross necropsy, FIG. 5C): moderate tumor cell infiltration; vessel density / CD31 staining on tumor sections ([2]; immunohistochemistry, vs PBS, FIGS. 5D and 5E): significantly decreased; symptom-free survival of PC3 tumor-bearing mice ([2]; listed as FB704): significantly prolonged symptom-free survival; also recorded: significantly better efficacy than Actemra; also recorded: significant better efficacy than Actemra; binding activity to coated cytokines (specificity) [7]: high binding activity to human IL6 protein but not to other cytokines; inhibition of IL6-induced angiogenesis in matrigel plugs ([8]; 6 days after treatment, FIG. 4A): observable difference in color and vessel density; also recorded: inhibited angiogenesis; hemoglobin concentrations in matrigel plugs ([8]; day 6, compared with hIL6, FIG. 4B): significantly reduced the hemoglobin concentrations; also recorded: significantly changed the hemoglobin concentrations"
B3,–,–,0.0006,2.24e+06,0.0006,inhibited MCP-1 production in a dose dependent manner,in a dose dependent manner,in a dose dependent manner,at a level greater than Actemra,inhibition of IL6+sIL6R induced MCP-1 secretion ([6]; listed as Hag1T-3-10): inhibited; inhibition of sICAM-1 production ([6]; listed as Hag1T-3-10): at a level greater than Actemra; suppression of phosphorylated-STAT3 signaling ([1]; listed as HAgT1-3-10): suppressed the STAT3 signaling at a much greater level as compared to control antibody Actemra
